This is an account of results in patent US5639868, “High-affinity RNA ligands for basic fibroblast growth factor” (NeXstar Pharmaceuticals, Inc.).

One may read the Kd as the concentration at which binding is half-saturated. Broadly, the IC50 is the point on the concentration scale where inhibition reaches its midpoint. The low end stands for greater potency in that assay, the high end for weaker potency in that assay.

Data set [1] addresses T1, basic fibroblast growth factor (bFGF, FGF-2) (UniProt P09038 P09038:135-288). The data set is described as follows: filter; biphasic, Kd1 (mole fraction 0.5); Kd2 = 270 nM. The note with it: tags: Bachem California; 18 kDa, 154 amino acids. How it is done: (§1) This affinity screening allowed identification of those ligands with highest affinity for bFGF. Binding of a group of these ligands was analyzed over a range of bFGF concentrations (FIG. 8) and their dissociation constants (Kd's) were determined as described (Jellinek et al. (1993) Proc. Natl. Acad. Sci. U.S.A. 90:11227–11231) (Table IX). RNA concentrations were determined from their absorbance reading at […] (and were typically <100 pM). Binding reactions were done at 37° C. in phosphate buffered saline containing 0.01% human serum albumin and 1 mM DTT.
(§2) The minimal sequence information required for high-affinity binding to bFGF was examined for several of the 2'-NH_2 modified ligands by deletion analyses as described (Tuerk et al. (1990) J. Mol. Biol. 213:749–761).

The target in data set [2] is T1, basic fibroblast growth factor (bFGF, …). The data set is described as follows: filter; monophasic. The conditions noted are these: tags: Bachem California; 18 kDa, 154 amino acids. How it is done: as §1, §2
Data set [3] shares this target. The data set is described as follows: inhibition; 125I-bFGF binding to high-affinity receptor, BHK cells, 4 C. The note with it: tags: Bachem California; 18 kDa, 154 amino acids; label: 125I. As to the method: Receptor Binding Studies. bFGF was labeled with ^125I by the Iodo-Gen (Pierce) procedure as described by Moscatelli (1987) supra. […] The amount of 125I-bFGF bound to the low- and the high-affinity receptor sites was determined as described by Moscatelli (1987) supra.

The target is the same in data set [4]. The experiment in a line: filter; biphasic, Kd1 (mole fraction 0.5); Kd2 = 180 nM. The note with it: tags: Bachem California; 18 kDa, 154 amino acids. As to the method: as §1, §2
Data set [5] shares this target. The experiment in a line: filter; binding curve in figure only; PBS, 0.01% HSA, 1 mM DTT, 37 C. The conditions noted are these: tags: Bachem California; 18 kDa, 154 amino acids. As to the method: Binding curves for modified RNA ligands 21A, 38B and random RNAs were determined (FIG. 8). RNA concentrations were determined from their absorbance reading at 260 nm and were typically less than 100 pM. Binding reactions were conducted at 37° C. in phosphate buffered saline containing 0.01% human serum albumin and 1 mM DTT. Heparin competitively displaced RNA ligands from both sequence families (FIG. 3), although higher concentrations of heparin were required to displace members of family 2 from bFGF.
as §1

T1 sequence (P09038 135-288, one chain of several): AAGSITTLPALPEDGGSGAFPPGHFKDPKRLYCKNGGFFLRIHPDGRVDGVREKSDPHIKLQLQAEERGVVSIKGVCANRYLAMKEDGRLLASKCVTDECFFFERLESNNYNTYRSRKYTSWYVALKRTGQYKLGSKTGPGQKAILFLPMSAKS

B1: 2'-NH2 21A-t (ssRNA)
RNA: GGUGUGUGGAAGACAGCGGGUGGUUC
modifications: 2'-NH2 at all C and U
Turning to B1, binding in data set [1] was put at a Kd of 0.0001 µM.

B2: 2'-NH2 34B-t (ssRNA)
RNA: GGAGGACGAUGCGGAACGGGAGGUACGAGAGCGGGAGC
modifications: 2'-NH2 at all C and U
In data set [2], B2 yielded a Kd of 0.003 µM.

B3: 5A (ssRNA)
RNA: GGGAGCUCAGAAUAAACGCUCAAAUCUCCUCCCGUCGAAGCUAACCUGGCCACUUCGACAUGAGGCCCGGAUCCGGC
As for B3, in data set [3], the half-maximal inhibitory concentration (IC50) was about 1 µM.

B4: 2'-NH2 58A-t (ssRNA)
RNA: GGACGGCGUGGUCCGAGGGUGGCGAGU
modifications: 2'-NH2 at all C and U
As for B4, the Kd in data set [4] is 0.0018 µM.

B5: 2'-NH2 38B (ssRNA)
RNA: GGGAGGACGAUGCGGGCUGCGGUGCGCAUGUGUGGAAGACAGAGGGAGGUUAGAAUCGUGCCGCCAGACGACUCGCCCGA
modifications: 2'-NH2 at all C and U
In the case of B5, the binding result in data set [5] was “binds”.

B6: 12A (ssRNA)
RNA: GGGAGCUCAGAAUAAACGCUCAAGGGGCAACGCUACAGACAAGUGCACCCAACUUCGACAUGAGGCCCGGAUCCGGC
The molecule B6 came in with an IC50 in data set [3] of over 1 µM.

B7: 26A (ssRNA)
RNA: GGGAGCUCAGAAUAAACGCUCAACGUCAGAAGGCAACGUAUAGGCAAGCACACUUCGACAUGAGGCCCGGAUCCGGC
B7 yielded a half-inhibitory concentration (IC50) in data set [3] of about 1 µM.

B8: 7A (ssRNA)
RNA: GGGAGCUCAGAAUAAACGCUCAAUCGGCGAGCUAACCAAGACACUCGCUGCACUUCGACAUGAGGCCCGGAUCCGGC
B8 displayed an IC50 in data set [3] of about 1 µM.
